From patent US20250376528A1 come the findings set out here.

This test has as its target human IL-10 receptor (hIL-10R α and β chains) on HEK-Blue IL-10 reporter cells (human) (UniProt Q13651). In words: cell-based or functional assay.

Chain of human IL-10 receptor (hIL-10R α and β chains) on HEK-Blue IL-10 reporter cells (human) (Q13651 22-578, chain 1 of 2): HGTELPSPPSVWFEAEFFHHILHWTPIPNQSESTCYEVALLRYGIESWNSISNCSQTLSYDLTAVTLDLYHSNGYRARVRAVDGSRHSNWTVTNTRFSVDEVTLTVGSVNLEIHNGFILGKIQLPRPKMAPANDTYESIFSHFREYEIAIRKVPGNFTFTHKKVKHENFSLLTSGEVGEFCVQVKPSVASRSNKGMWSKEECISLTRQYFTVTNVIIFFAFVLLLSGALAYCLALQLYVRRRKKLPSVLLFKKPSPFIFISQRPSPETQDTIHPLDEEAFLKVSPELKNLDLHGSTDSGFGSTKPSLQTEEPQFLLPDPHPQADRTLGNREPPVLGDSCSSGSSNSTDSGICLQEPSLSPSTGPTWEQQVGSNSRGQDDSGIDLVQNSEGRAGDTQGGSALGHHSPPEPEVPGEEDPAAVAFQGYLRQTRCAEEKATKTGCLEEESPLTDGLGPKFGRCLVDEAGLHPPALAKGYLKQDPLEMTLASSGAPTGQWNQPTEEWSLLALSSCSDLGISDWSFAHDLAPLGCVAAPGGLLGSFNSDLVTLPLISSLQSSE
Chain of human IL-10 receptor (hIL-10R α and β chains) on HEK-Blue IL-10 reporter cells (human) (Q08334 20-325, chain 2 of 2, further chain): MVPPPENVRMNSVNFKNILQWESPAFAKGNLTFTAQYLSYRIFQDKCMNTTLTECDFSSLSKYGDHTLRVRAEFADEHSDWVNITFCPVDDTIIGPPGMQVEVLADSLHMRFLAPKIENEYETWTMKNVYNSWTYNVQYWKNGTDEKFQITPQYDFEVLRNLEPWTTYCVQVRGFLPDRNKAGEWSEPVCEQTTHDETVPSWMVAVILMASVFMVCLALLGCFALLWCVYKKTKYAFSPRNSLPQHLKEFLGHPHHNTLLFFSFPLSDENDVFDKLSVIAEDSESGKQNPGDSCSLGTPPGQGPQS

“Recombinant Animal-Free Human IL-10 (Shenandoah Biotechnology, Catalog No. 100-83AF) (from UniProt P22301 19-178) (ligand)”: the Abs 630 (25 nM) came out at 2.08 Abs 630 and the Abs 630 (100 nM) amounted to 2.04 Abs 630.
